Results reported in patent US20220259593A1, “CONTROL OF MAMMALIAN GENE DOSAGE USING CRISPR” (The Regents of the University of California, priority 2019, published 2022).

Test system: K562 CRISPRi cells
Assay: Constant region variant library pooled growth screen, K562
Assay type: cell-based, human
Conditions: sgRNA constant region variants; activity relative to the original, un-modified constant region cr995
Method in brief: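 K562 CRISPRi, duplicate transductions; puromycin 1 d 0.75 μg/mL then 1 d 0.85 μg/mL; >2000× coverage in spinner flasks; harvests at 4-8 d growth. Activity = phenotype ÷ phenotype with unmodified constant region.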

Molecule	Mean relative activity
cr643 (nucleic acid, listed as DNA, chemistry not fully specified) guide: GTTTAAGAGCTAAGCTGGAAACAGCATAGCAAGTTTAAATAAGACTAGTTCGTTATCAGCTTGAAAAAGCGGCATCGAGTCGATGCT	0.865
cr899 (nucleic acid, listed as DNA, chemistry not fully specified) guide: GTTTAAGAGCTAAGCTGGAAACAGCATAGCAAGTTTAAATAAGACTAGTTCGTTATCAGCTTGAAAAAGCGGTACCGAGTCGGTACT	0.8583
cr358 (nucleic acid, listed as DNA, chemistry not fully specified) guide: GTTTAAGAGCTAAGCTGGAAACAGCATAGCAAGTTTAAATAAGGTTAATCCGTTATCAAGTTGAAAAACTGGCACTGAGTCAGTGCT	0.886
cr729 (nucleic acid, listed as DNA, chemistry not fully specified) guide: GTTTAAGAGCTAAGCTGGAAATAGCATAGCAAGTTTAAATAAGGCTAGTCCGTTATCAACTTGAAAAAGTGGCACCGAGTCGGTGCT	0.8793
cr891 (nucleic acid, listed as DNA, chemistry not fully specified) guide: GTTTAAGAGCTAAGCTGGAAACAGCATAGCAAGTTTAAATAAGACTAGTTCGTTATCAACTTGAAAAAGTGGTACCGAGTCGGTACT	0.8641
cr688 (nucleic acid, listed as DNA, chemistry not fully specified) guide: GTTTAAGAGCTAAGCTGGAAACAGCATAGCAAGTTTAAATAAGGCTAGTCCGTTATCAACTTGATAAAGTGGCACCGAGCCGGTGCT	0.848
cr521 (nucleic acid, listed as DNA, chemistry not fully specified) guide: GTTTAAGAGCTAAGCTGGAAACAGCATAGCAAGTTTAAATAAGGCTGGTCCGTTATCAACTTGAAAAAGTGGCACCGTGTCGGTGCT	0.8638
cr781 (nucleic acid, listed as DNA, chemistry not fully specified) guide: GTTTAAGAGCTAAGCTGGAAACAGCATAGCAAGTTTAAATAAGGCTAGTCCGTTATCAACTTGAAAAAGTGGCACCGAGTCGGTCCT	0.8813
cr236 (nucleic acid, listed as DNA, chemistry not fully specified) guide: GTTTAAGAGCTAAGCTGGAAACAACATAGCAAGTTTAAATAAGGCTAGTCCGTTATCAACTTGAAAAAGTGGCACCGAGTCGGTGCT	0.8745
cr105 (nucleic acid, listed as DNA, chemistry not fully specified) guide: GTTTAAGAGCTAAGCTGGAAACAGCATAGCAAGTTTAAATAAGGCCAGTCCGTTATCAACTTGACAAAGTGGCACCGAGTCGGTGCT	0.8672
cr676 (nucleic acid, listed as DNA, chemistry not fully specified) guide: GTTTAAGAGCTAAGCTGGAAACAGCATAGCAAGTTTAAATAAGGCTAGTCCGTTATCAACTTGGAAAAGTTGCACCGAGTCGGTGCT	0.8506
cr617 (nucleic acid, listed as DNA, chemistry not fully specified) guide: GTTTAAGAGCTAAGCTGGAAACAGCATAGCAAGTTTAAATAAGGTTAATCCGTTATCAGCGTGAAAACGCGGCACCGAGTCGGTGCT	1.058
cr768 (nucleic acid, listed as DNA, chemistry not fully specified) guide: GTTTAAGAGCTAAGCTGGAAACAGCATAGCAAGTTTAAATAAGGCTAGTCCGTTATCAACTTGAAAAAGTGGCACCGAGCCGGTGCT	0.8788
cr878 (nucleic acid, listed as DNA, chemistry not fully specified) guide: GTTTAAGAGCTAAGCTGGAAACAGCATAGCAAGTTTAAATAAGGTTAATCCGTTATCAATTTGAAAAAATGGCATCGAGTCGATGCT	0.847
cr829 (nucleic acid, listed as DNA, chemistry not fully specified) guide: GTTTAAGAGCTAAGCTGGAAACAGCATACCAAGTTTAAATAAGGCTAGTCCGTTATCAACTTGAAAAAGTGGCACCGAGTCGGTGCT	0.8571
cr984 (nucleic acid, listed as DNA, chemistry not fully specified) guide: GTTTAAGAGCTAAGCTGGAAACAGCATAGCAAGTTTAAATAAGGCTAGTCCGTTATCAACTTGAAAAAGTGGCACCGAGTCGGTGGT	0.8858

Molecule	Mean relative activity
cr414 (nucleic acid, listed as DNA, chemistry not fully specified) guide: GTTTAAGAGCTAAGCTGGAAACAGCATAGCAAGTTTAAATAAGGCTAGTCCGTTATCAACTTGAAAAAGTGGCTCCGAGTCGGTGCT	0.8852
cr749 (nucleic acid, listed as DNA, chemistry not fully specified) guide: GTTTAAGAGCTAAGCTGGAAACAGCATAGCGAGTTTAAATAAGGCTAGTCCGTCATCAACTTGAAAAAGTGGCACCGCGTCGGTGCT	0.8857
cr184 (nucleic acid, listed as DNA, chemistry not fully specified) guide: GTTTAAGAGCTAAGCTGGAAACAGCATAGCAAGTTTAAATAAGGCTAGTCCGGTATCAACTTGGAAAAGTGGCACCGAGTCGGTGCT	0.8653
cr759 (nucleic acid, listed as DNA, chemistry not fully specified) guide: GTTTAAGAGCTAAGCTGGAAACAGCATAGCAAGTTTAAATAAGGCTCGTCCGTTATCAACTTGAGAAAGTGGCACCGAGTCGGTGCT	0.8842
cr692 (nucleic acid, listed as DNA, chemistry not fully specified) guide: GTTTAAGAGCTAAGCTAGAAACAGCATAGCAAGTTTAAATAAGGCTAGTCCGTTATCAACTTGAAAAAGTGGCACCGAGTCGGTGCT	0.8665
cr216 (nucleic acid, listed as DNA, chemistry not fully specified) guide: GTTTAAGAGCTAAGCTGGAAACAGCATAGCAAGTTTAAATAAGACTAGTTCGTTATCAACTTGAAAAAGTGGCACCGAGTCGGTGCT	0.8652
cr286 (nucleic acid, listed as DNA, chemistry not fully specified) guide: GTTTAAGAGCTAAGCTGGAAACAGCATAGCAAGTTTAAATAAGGCGAGTCCGTTATCAACTTGAGAAAGTGGCACCGAGTCGGTGCT	0.885
cr260 (nucleic acid, listed as DNA, chemistry not fully specified) guide: GTTTAAGAGCTAAGCTGGAAACAGCATAGCAAGTTTAAATAAGGCTAGTCCGATATCAACTTGAAAAAGTGGCACCGAGTCGGTGCT	0.874
cr914 (nucleic acid, listed as DNA, chemistry not fully specified) guide: GTTTAAGAGCTAAGCTGGAAACAGCATAGCAAGTTTAAATAAGACTAGTTCGTTATCAACTTGAAAAAGTGGGACCGAGTCGGTCCT	0.8494
cr022 (nucleic acid, listed as DNA, chemistry not fully specified) guide: GTTTAAGTGCTAAGCTGGAAACAGCATAGCAAGTTTAAATAAGGCTAGTCCGTTATCAACTTGAAAAAGTGGCACCGAGTCGGTGCT	1.058
cr865 (nucleic acid, listed as DNA, chemistry not fully specified) guide: GTTTAAGAGCTAAGCTGGAAACAGCATAGCAAGTTTAAATAAGGCTAGTCCGTTATCATCTTGAAAAAGTGGCACCGAGTCGGTGCT	0.8637
cr396 (nucleic acid, listed as DNA, chemistry not fully specified) guide: GTTTAAGAGCTAAGCTGGAAACAGCATAGCAAGTTTAAATAAGGCTAGTCCGTTATCAACTTGAAAAAGTGGCAACAAGTTGTTGCT	0.8826
cr788 (nucleic acid, listed as DNA, chemistry not fully specified) guide: GTTTAAGAGCTAAGCTGGAAACAGCATATCAAGTTTAAATAAGGCTAGTCCGTTATCAACTTGAAAAAGTGGCACCGAGTCGGTGCT	0.8617
cr153 (nucleic acid, listed as DNA, chemistry not fully specified) guide: GTTTAAGAGCTAAGCTGGAAACAGCATAGCAAGTTTAAATAAGGCTAGTCCGTTATCAAAATGAAAATTTGGCACCGAGTCGGTGCT	0.8735
cr991 (nucleic acid, listed as DNA, chemistry not fully specified) guide: GTTTAAGAGCTAAGCTGGAAACAGCATAGCAAGTTTAAATAAGGCTAGTCCGATATCAACTTGACAAAGTGGCACCGAGTCGGTGCT	0.8694
